# “Also recorded” adds a separate entry of the source.
# B1: Endo-Zr: endo-β-N-acetylglucosaminidase from Zygosaccharomyces rouxii ATCC2623, amino acid sequence SEQ ID NO. 13, 639 amino acids (protein, listed as Zygosaccharomyces rouxii)
# chain: MKRINQVPGKPEITSLYFDDLNSLQRWFDKGFMDSRDLSNVPKERYSNYVKFEKDSIITIPNLSARKTEIIVCHDFKGGYQSGHDLYPNGQYGTESCKPYSLRYPEIVDKFVYFSHHCVTIPPSPWTNYLHRHSIPVLGTLILEHYPHNGELFKKNAKGEFLYVKYLVELCRKFHFEGWLINFETVFGNNSKQVIPFLRELTARVECEIYGGSVIWYDAFTTFSNKPSHQNEVNLFNYDAYENSSQFMTNYMWDSHNVGNSLRNVGALGMHSHVALGVDVWGRNMQVCRGGFESNIAIYYAKRFGTNAVIFAPGWTYENFGEDQFYEKDDIFWGNIKSTLQLDSYSDSQLSSWFVSESKKTRYFTTFFSTGSGNFFNLNGRRISNDNWVQLGLSTPFPVNSHSYLSFKDSFVGGSCLALPLSPMENGKLHLFRFEQFIKDQQKTSDSEIRVKLSYKSLGALPPVKLVIKCFVIRRGKRSKTILKVDDVSLVLPLSHSACQTAQGSTKWAVVEQIVPLPSLESRFLEEYYVEDAHLEWTMDNNHDEWLMVPERTEDLDCKLLIGSLCLEIGPHEDNNKRQIVRNGPQLSWQDNESSFMWLKLQDGKLDSVLFTPTTKVNGKQPTILECGRNGTLKFVVKK
# B2: Endo-Pa: endo-β-N-acetylglucosaminidase from Pichia anomala ATCC36904, amino acid sequence SEQ ID NO. 9, 656 amino acids (protein, listed as Pichia anomala)
# chain: MQHDHAAIKFEEDSISSQRFSSLDEVEKWYNTKNRSPLDDLRIPRESLSHYNRFRDNNDEIKVLVCHDFKGNYQEGEDENPLGYFPHSSGQHYFIQFPSLVDLFIFFSHYKIAVPPVSWINSLHRQGIPVLGTLIFEGTDVSESDKLLEKNENGDFKYLEILCELVRHYGFDGWLVNMESHFSSVAKAQDLLLFDEALRSTLHLKVPGSKLIWYDSLITQKNRVFYQNAVNEWNYDHFSTSDLFFTNYWWNEEDLKRNILNIGLQGVKQKLFVGVDIWGRGSRIGNGGFESGLAINYLKRYSTNVALFAPAWTYENFEEDQFLIKDRKFWIGDQTSDETGGSVATYVSHYTTPVYVKDQNVKFYTNFSVGEGTKYRVFAHTVFKNNWVNGNLQLPTPIIDNEKRIDIYYKESFNGGSSLKVTQRNSILNDGKSNILQLFSFKNDIHSNNLNVSVSFKYLSEIPLNSTFQLEIKFYIERRYRSVTRVRDGTFKLPLAFSNKNWKYIETSFALPRLQIREHFVLEGLQIRWVDNVDELSSSIGTSGDFTESWIIVPQNSDPNAVYELLIGDLLVEGIKTANGNIDAVTKLSRKITLDSRSILATWKDDTEVLYWIIYVNAKFLGIAHKSLWRVQRGDKLRVDVFTRSGKLVKGEDIFI
# B3: Endo-Cp: endo-β-N-acetylglucosaminidase from Candida parapolymorpha DL-1 ATCC26012, amino acid sequence SEQ ID NO. 5, 745 amino acids (protein, listed as Candida parapolymorpha)
# chain: MPRNTAKHSSLPQTNLPLSSLESSFFDSLDELANWERRIHEKSFELDELNKPTEKLAHYTRARQQSTSEDVKLLVCHDLKGGYQVNEDEDPLGYFPHPDGQHYFLQYPQLVDKFVYFSHHRVSIPPVSWINVCHRNAIKCLGTVIFEGNTYRDFEEADKLLTKQDGEYVFVRCLVALVEYFQFDGYLFNIETRFSNTRIASLLEPFLEQLRAELHVRNPSTELIWYDSYIYPENRVLYKNGVTEANYNFFSCCDSFFTNYWWNVKHLQDNIKNVGVLGSRLKVYAGYDVWGRGTMIGKGGYDSALACQMIKKYRSNVALFAPAWTYEYLARKDFTQNDTRFWIGLFDGESSMATTFKPYSSPLYKINDSNFVFYTNFGSGEGCAFYECGEKVYRDNWVNGSLQMEIPYAIHTRNKNGIQWTLSKEDSFHGGSCVEIKYNEVVDDKGYQVFNNQTINSFSLFSFVQDCSFPTVNVKLTYKLNHKTKSFFKLKIGYYIERRYRTVQKVRSGCLVVPLLSTNDQWFTIEEPFHVSLQNSHEFIVLDSATIFYEETEDPFMRAHVVEDQSTSSVIDNEEYEKLMNSEIYFDDEDEDWILVPSDISMESTDNGGRENHTWKVISNQIRKKHPKSHPSTSPVLKLGELAIINANDYPSDSFFKLMPVNSIDVRRWEGKILLIWKTNQDSVLYHLIFVDDVFQGISLVSKFVFEDQAVDEKSFKTKSGGSTKVRIDTVNRLGILVKGTDM
# B4: Endo-Om: endo-β-N-acetylglucosaminidase from methylotrophic yeast Ogataea minuta IFO10746, amino acid sequence SEQ ID NO. 1, 772 amino acids (protein, listed as Ogataea minuta)
# chain: MAQSQLLGGAVRPVFFDKLEELRRWHTQSANLSRESELDSLNVATEPFSSYERAQTGSGSRSSEPVPGDKEDPPIKLMVCHDFKGGYQDYEDAQPLGYFPHPTGSRYFLQYPQLIDQFVYFSHHRVTVPPVNWINFCHRNGIKCFGTVIFEGNASKDFEELDRLVSRDEKGDFVFVDALIKLAAHYGFDGYLLNIETTFSNTKIAADLEPFAEQLKSGLHCLDSKNELIWYDSYVFPANKVSYTNGVTESNYNFFSLSDAFFSNYWWNIKNLQENIKNVGVLGVQKKIYVGYDVWGRGTLVGKGGFDSSLACKMIAKFKSNVALFAPAWTYESLGPKDFNQNDARFWIGLFENESSISSTVPPHSSAVYKINESSFIFYTNFSSGEGNRFFSKGSEVYRKNWVNGSLQFDLPIDLHRKDKNGLQWALDKSDAFHGGACLEIKYSEIKDENGYQIFNNQMVSDFTLFNFTKECHFPTVNVKVTYKLNHKTKSTFKIKIKYIIERRFRSVQTVRTGYLTIPLLSTSGKWFTVEESFQINLQTSHEYIVLESAHVTYDEDRSADSFFRSYIVEDSAITSVIDNEEYEKLINSEIYNDDEDEDWILVPSDVSISSSESQSNDSKTQYLGRKLFGNKSTPKTRTLEGTAPLLRIGEFAIISANNYPSSNFLAVTSVKSIESSRLEGDSLVLLNWQVGEGHQKGVCYYIIYVNGAVVGLSVAPKFIYQDTELASENSASARSNYKKSGLGSSSDRKSKVRVDSVDKLGNVFTGSEVWV
# Assay: Detection of transglycosidase activity (HPLC, MS of transglycosylation product)
# Type: biochemical
# Details: donor 2 mM NGA2-Asn-Fmoc, acceptor 50 mM p-nitrophenylglucose, pH 6.0, 30° C.
# Procedure: (§1) The transglycosidase activity of Endo-Om was detected by incubating the reaction solution containing a biantennary complex type sugar chain as the substrate, acceptor molecules (p-nitrophenylglucose), and an Endo-Om partially purified enzyme solution at 30° C. for 3 hours, and then subjecting it to HPLC after the completion of the reaction; a new peak different from the hydrolysate was detected, and was identified by MS analysis to be a transglycosylation product including an acceptor molecule to which a biantennary complex type sugar chain is added (FIG. 7).
# as §1, with “Endo-Cp” for “Endo-Om”, “11).” for “7).”
# as §1, with “of Endo-Pa” for “of Endo-Om”, “an Endo-Pa” for “an Endo-Om”, “for 16” for “for 3”, “(FIG. 15).” for “(FIG. 7).”
# The transglycosidase activity of Endo-Om was detected as follows. The reaction solution containing a sodium acetate buffer at a final concentration of 100 mM (pH 6.0), 2 mM NGA2-Asn-Fmoc, 50 mM acceptor molecule (p-nitrophenylglucose), and an Endo-Om purified enzyme solution (total volume: 10 μl) was incubated at 30° C. for 3 hours, and heated at 95° C. for 5 minutes to stop the enzyme reaction. The total amount of the reaction solution was subjected to HPLC by the method described in Example 4, and detection was carried out using a UV detector (274 nm). In addition, the peak corresponding to a transglycosylation product was collected, freeze-dried, and then redissolved in Milli-Q water and subjected to mass spectrometry using MALDI-QIT-TOFMS (AXIMA-QIT, Shimadzu Co., Ltd.), thereby identifying the transglycosylation product.
# The transglycosidase activity of Endo-Cp was detected as follows. […]
# The transglycosidase activity of Endo-Pa was detected as follows. […]
Molecule,Transglycosidase activity (16 hours),Transglycosidase activity (3 hours)
B1,not detected; also recorded: transglycosidase activity was not confirmed,–
B2,significant transglycosidase activity was confirmed; also recorded: has activity for transferring the cleaved sugar chain to any acceptor molecule,–
B3,–,significant transglycosidase activity was confirmed; also recorded: has activity for transferring the cleaved sugar chain to any acceptor molecule
B4,–,has activity for transferring the cleaved sugar chain to any acceptor molecule; also recorded: significant transglycosidase activity was confirmed

# — patent publication US9371519B2, “Complex type sugar chain hydrolase” (National Institute of Advanced Industrial Science and …, priority 2011, dated 2016)
